Laboratory results: patent US20250262210A1 (TRUSTEES OF COLUMBIA UNIVERSITY IN THE CITY OF NEW YORK, published 2025)

Columns and labels:
[1] = target: RTTN (human, UniProt Q86VV8 1-2226, limits assumed); test: IP/MS, LZTR1 R810W-FLAG, U87
Summary of the method: (§1)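 Read-out: spectral counts from LC-MS/MS (Orbitrap Fusion) after MaxQuant identification. Variable modifications were Met oxidation, protein N-terminal acetylation and N/Q deamidation.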

[2] = target: T1, ZCCHC6 (human, UniProt Q5VYS8 1-1495, limits assumed); test: IP/MS, LZTR1 R810W-FLAG, U87
T1 sequence (looked up): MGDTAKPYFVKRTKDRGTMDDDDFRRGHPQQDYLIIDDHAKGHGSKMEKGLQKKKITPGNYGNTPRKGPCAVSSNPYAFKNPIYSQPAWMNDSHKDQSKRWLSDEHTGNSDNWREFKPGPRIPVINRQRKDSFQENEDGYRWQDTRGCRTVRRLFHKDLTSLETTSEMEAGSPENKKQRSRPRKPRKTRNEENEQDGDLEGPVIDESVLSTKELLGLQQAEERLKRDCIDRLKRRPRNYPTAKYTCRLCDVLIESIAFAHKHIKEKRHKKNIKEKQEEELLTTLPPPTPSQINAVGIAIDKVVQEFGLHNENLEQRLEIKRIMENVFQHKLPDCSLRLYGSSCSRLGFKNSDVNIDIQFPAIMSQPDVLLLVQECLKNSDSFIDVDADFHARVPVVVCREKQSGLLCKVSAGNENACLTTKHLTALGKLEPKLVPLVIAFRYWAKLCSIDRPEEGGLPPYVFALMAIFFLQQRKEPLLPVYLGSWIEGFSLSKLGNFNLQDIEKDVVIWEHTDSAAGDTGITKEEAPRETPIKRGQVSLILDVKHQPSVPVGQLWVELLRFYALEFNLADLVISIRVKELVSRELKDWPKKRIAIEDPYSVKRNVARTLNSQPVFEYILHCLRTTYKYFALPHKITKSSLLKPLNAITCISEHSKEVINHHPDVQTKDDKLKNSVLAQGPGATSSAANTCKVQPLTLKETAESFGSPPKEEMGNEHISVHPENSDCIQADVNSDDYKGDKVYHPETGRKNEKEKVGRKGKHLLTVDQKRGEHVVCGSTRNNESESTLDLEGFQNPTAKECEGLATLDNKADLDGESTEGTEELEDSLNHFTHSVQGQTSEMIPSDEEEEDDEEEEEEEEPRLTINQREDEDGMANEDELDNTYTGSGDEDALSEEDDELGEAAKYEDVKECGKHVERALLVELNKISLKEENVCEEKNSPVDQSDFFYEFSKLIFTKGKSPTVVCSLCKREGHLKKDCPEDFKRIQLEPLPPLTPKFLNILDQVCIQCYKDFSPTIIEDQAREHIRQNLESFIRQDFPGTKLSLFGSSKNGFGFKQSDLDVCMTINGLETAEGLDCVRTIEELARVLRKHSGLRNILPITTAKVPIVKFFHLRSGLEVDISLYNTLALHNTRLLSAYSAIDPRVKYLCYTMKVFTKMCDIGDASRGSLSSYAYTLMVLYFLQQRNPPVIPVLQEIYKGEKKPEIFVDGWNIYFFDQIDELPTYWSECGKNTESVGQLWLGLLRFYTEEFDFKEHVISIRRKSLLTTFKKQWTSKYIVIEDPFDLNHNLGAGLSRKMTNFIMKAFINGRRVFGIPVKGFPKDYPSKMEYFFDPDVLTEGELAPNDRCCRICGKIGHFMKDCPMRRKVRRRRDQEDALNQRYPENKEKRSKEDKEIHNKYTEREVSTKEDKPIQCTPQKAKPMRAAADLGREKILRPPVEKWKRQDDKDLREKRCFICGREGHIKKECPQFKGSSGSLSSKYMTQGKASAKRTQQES
Summary of the method: as §1

RTTN, sequence (Q86VV8 whole entry, the tested form may be a part): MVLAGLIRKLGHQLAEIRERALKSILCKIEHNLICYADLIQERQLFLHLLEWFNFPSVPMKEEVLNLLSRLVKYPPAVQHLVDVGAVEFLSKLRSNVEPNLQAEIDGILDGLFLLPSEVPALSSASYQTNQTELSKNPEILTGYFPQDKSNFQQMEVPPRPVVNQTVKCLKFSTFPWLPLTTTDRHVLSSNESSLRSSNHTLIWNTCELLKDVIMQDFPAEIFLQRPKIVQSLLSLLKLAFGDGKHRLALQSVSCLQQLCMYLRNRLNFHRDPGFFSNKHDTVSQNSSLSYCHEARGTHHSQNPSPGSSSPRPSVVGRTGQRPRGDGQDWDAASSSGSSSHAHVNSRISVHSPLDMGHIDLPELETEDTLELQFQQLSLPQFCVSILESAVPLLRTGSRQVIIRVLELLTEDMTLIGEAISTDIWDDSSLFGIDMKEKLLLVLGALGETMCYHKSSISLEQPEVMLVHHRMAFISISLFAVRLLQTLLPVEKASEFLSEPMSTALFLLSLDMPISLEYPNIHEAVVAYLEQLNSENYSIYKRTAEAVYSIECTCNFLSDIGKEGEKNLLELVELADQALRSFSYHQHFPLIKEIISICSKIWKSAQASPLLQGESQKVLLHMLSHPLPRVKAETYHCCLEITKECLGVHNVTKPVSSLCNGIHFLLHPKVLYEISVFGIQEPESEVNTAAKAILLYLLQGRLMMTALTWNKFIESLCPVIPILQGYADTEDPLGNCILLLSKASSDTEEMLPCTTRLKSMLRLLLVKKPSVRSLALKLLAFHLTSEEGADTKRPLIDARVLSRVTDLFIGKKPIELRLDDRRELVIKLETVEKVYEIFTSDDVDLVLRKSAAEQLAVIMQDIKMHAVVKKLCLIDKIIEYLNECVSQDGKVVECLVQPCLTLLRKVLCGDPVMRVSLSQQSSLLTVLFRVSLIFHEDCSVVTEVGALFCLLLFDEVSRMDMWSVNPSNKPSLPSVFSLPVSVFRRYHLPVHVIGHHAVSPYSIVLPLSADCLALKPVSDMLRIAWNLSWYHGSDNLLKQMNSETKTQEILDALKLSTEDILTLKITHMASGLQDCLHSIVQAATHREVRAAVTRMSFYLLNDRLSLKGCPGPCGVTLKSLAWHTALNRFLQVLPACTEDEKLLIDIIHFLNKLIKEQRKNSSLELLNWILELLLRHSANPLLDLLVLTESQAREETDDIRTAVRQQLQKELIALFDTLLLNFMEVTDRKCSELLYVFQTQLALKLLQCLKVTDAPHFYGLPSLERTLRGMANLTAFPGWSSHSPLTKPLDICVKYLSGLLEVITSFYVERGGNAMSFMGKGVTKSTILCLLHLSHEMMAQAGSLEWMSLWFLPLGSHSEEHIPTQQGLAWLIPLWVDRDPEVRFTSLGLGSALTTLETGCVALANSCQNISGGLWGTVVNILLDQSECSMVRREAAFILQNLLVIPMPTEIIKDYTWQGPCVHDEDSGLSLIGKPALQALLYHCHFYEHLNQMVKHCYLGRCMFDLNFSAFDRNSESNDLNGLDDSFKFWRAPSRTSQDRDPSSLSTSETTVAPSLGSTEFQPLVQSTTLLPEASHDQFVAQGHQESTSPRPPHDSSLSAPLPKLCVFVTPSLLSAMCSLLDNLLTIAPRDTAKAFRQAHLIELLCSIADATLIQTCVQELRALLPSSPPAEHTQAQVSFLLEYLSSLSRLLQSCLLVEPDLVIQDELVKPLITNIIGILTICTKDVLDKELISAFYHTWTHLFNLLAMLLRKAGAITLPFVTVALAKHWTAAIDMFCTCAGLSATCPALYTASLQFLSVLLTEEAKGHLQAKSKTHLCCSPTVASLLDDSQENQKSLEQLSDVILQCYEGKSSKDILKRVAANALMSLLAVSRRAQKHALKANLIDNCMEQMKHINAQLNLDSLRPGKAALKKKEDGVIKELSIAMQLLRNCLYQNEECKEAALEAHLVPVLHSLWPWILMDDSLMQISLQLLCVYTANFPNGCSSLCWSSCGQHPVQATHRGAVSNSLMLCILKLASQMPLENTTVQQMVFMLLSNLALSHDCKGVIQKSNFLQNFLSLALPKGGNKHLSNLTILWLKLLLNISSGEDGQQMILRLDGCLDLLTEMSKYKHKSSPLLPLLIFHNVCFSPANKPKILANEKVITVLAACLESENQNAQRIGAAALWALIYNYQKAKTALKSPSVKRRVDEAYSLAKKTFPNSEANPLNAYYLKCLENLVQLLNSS

B1: LZTR1 R810W-FLAG (other, human, UniProt Q8N653 1-840, looked up)
chain: MAGPGSTGGQIGAAALAGGARSKVAPSVDFDHSCSDSVEYLTLNFGPFETVHRWRRLPPCDEFVGARRSKHTVVAYKDAIYVFGGDNGKTMLNDLLRFDVKDCSWCRAFTTGTPPAPRYHHSAVVYGSSMFVFGGYTGDIYSNSNLKNKNDLFEYKFATGQWTEWKIEGRLPVARSAHGATVYSDKLWIFAGYDGNARLNDMWTIGLQDRELTCWEEVAQSGEIPPSCCNFPVAVCRDKMFVFSGQSGAKITNNLFQFEFKDKTWTRIPTEHLLRGSPPPPQRRYGHTMVAFDRHLYVFGGAADNTLPNELHCYDVDFQTWEVVQPSSDSEVGGAEVPERACASEEVPTLTYEERVGFKKSRDVFGLDFGTTSAKQPTQPASELPSGRLFHAAAVISDAMYIFGGTVDNNIRSGEMYRFQFSCYPKCTLHEDYGRLWESRQFCDVEFVLGEKEECVQGHVAIVTARSRWLRRKITQARERLAQKLEQEAAPVPREAPGVAAGGARPPLLHVAIREAEARPFEVLMQFLYTDKIKYPRKGHVEDVLLIMDVYKLALSFQLCRLEQLCRQYIEASVDLQNVLVVCESAARLQLSQLKEHCLNFVVKESHFNQVIMMKEFERLSSPLIVEIVRRKQQPPPRTPLDQPVDIGTSLIQDMKAYLEGAGAEFCDITLLLDGHPRPAHKAILAARSSYFEAMFRSFMPEDGQVNISIGEMVPSRQAFESMLRYIYYGEVNMPPEDSLYLFAAPYYYGFYNNRLQAYCKQNLEMNVTVQNVLQILEAADKTQALDMKRHCLHIIVHQFTKVSKLPTLWSLSQQLLLDIIDSLASHISDKQCAELGADI
notes: Stably expressed in U87 cells by lentivirus; also called LZTR1-FLAG-R810W; LZTR1 RW; not shown: FLAG tag
B1: binds [1]; binds [2].
